Experimental data published in the nanobody polyreactivity screen of Harvey et al. (2022).

experiment: yeast display, Sf9 membrane polyspecificity reagent, FACS + sequencing; frameworks hold sequencing errors
Outline: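 Sorting gates, low and high (top ~1%), were placed on anti-HA fluorescence to track expression and on streptavidin fluorescence to track reagent binding. A clone's polyreactivity label is taken from the gate it came out of. The reagent was 10% biotinylated, detergent-solubilized Sf9 membrane, applied for 1 hour at 4 °C to galactose-induced yeast display cells.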

| Sequence | polyreactivity (PSR sort gate) |
| --- | --- |
| QVQLVESGGGLVQAGGSLRISCAASGRIFYYNVMGWYRQAPGKEWELVASISYSSTRTYYADSVKGRFTISRDNGMNTFYLQMNSLKPEDTAVYYCAVDGYSYYSMDYWGQGTQVTVSS | low polyreactivity |
| QVQLVESGGGLVQAGGSLRISCAASGRISVVNAMGWYRQAPGKEREMVAAIRRASTNYADSVKGRFTISRDNAKNTVYLQMNSLKPEDTAVYFCAARVYGINIFEYWGQGTQVTVSS | high polyreactivity |
| QVQLVESGGGLVQAGGSLRISCAASGRNLSVYAMGWYRPAPGKERELVATITGRGGGTYYADSVKGRFTISRDNAKNTVYLQMNRLKPEDTAVYYCAADLVDFWYQITTHYDYWGQGTEVTVSS | low polyreactivity |
| QVQLVESGGGLVQAGGSLRISCAASGRTFADYAMGWSRQEPGKERELVAAISWSGGSTYYADSVKGRFTISCDNAKNTVYLQMNSLKPEDTAVYYSNAVRQRGYDYWGQGTQVTVSS | low polyreactivity |
| QVQLVESGGGLVQAGGSLRISCAASGRTFDRYAMGWYREAPGKERELVAVIRFIGGSTYYADSVKGRFTISRDNAKKTVYLQRNSLIPEDTAVYYCAAEVYDSYFFGYEYWGQGTQVTVSS | low polyreactivity |
| QVQLVESGGGLVQAGGSLRISCAASGRTFGANAMGWYRQAPGKERELVAGITSSGGSTSYADSVKGRFTISRDNAKNTVYLQMNSLKPEDTAVYYCAKDVYQHIFDVILGGYDSWGQGTQVTVSS | low polyreactivity |
| QVQLVESGGGLVQAGGSLRISCAASGRTFGINAMGWYRQAPGKERELVAAISSSGSTYYADSVKGRFTISRDNAKNTVYLQMNSLKPEDTAVYYCAAVAKQWGNTYYYWGQGTQVTVSS | high polyreactivity |
| QVQLVESGGGLVQAGGSLRISCAASGRTFLSYGMGWYRQAPGKERELVATIDDSGSTYYADSVKGRFTISRDNAKNTVYLQMNSLKPEDTAVYYCATDRQVFYWDFWYIEYDYGGQGTQVTVSS | high polyreactivity |
| QVQLVESGGGLVQAGGSLRISCAASGRTFPCKAMGWYRQAPGKERELVATITWSSGRTHYADSVKGRFTISRDNAKNTVYLQMNSLKPEDSAVYYCAAKWIVAVVGFYYWGQGTQVTVSS | low polyreactivity |
| QVQLVESGGGLVQAGGSLRISCAASGRTFSSYAMGWYRQAPGKERELVARISSSGGRTSYADSVKGRFTISRDNAKNTVYLQMNSLKPEDTAVYYCATEWSDRNDYWGQGTQVTVSS | high polyreactivity |
| QVQLVESGGGLVQAGGSLRISCAASGSIFAKNAMGWYRQAPGKERELVAGIDFSGGSTYYADSVKGRFTISRDNAKNTVYLQMNSLKPEDTAVYYCAADWAYKYELDYWGQGTQVTVSS | low polyreactivity |
| QVQLVESGGGLVQAGGSLRISCAASGSIFPHYAMGWYRQSPAKERELVAAISYSGGRTYYADSVKGRFTISRDNAKNTFYLQMNSLKPEDTAVYYCAKTERVLYHGDYWGQGTQVTVSS | low polyreactivity |
| QVQLVESGGGLVQAGGSLRISCAASGSIFQNYAMGGYRQAPGKERELVAAINDDSTYYADSVKGRFTISRDNAKNPVDLQMNSLKPEDTAVYYGNKEFLRRQRVTFWHLGGYWGQGTQVTVSS | low polyreactivity |
| QVQLVESGGGLVQAGGSLRISCAASGSIFRINAMGWYRQAHGKEMELVAAITASGDRTYYADSVKGRFTISRDNAKNTVYLQMNSLKPEDTAVFYCAVDSYYPASSLVAFPYAPRYDYWGQGTQVTVSS | low polyreactivity |
| QVQLVESGGGLVQAGGSLRISCAASGSIFRRYAMGWYSQAPGKERDLVATISSVTTTNYADSVKGRFTISRDNANNTVYLQMNSLKPEDTSVFYCAAVVYGQRRGPGQRKSYWGQGTQVTVSS | high polyreactivity |
| QVQLVESGGGLVQAGGSLRISCAASGSIFRYYYMGWYSQAPGKERELVAAITYSGGGTYYADSVKGRFTISRDNAKNTVYLQMNSLKAEDTAVYYCAVRRVGSIYIDRYIYVVSDYFYWGNGTQVTVSS | low polyreactivity |
| QVQLVESGGGLVQAGGSLRISCAASGSIFSDNGMGWYRQAPGKERELVAAITIGGSTNYADSVKGRFTISRDNAKNTVYLLMKRLNPEDTAVYYCNTDFFYYGYNFPYFDYDYWGQGTQVTVSA | low polyreactivity |
| QVQLVESGGGLVQAGGSLRISCAASGSIFTANSMGWYRQAPGKERELVAAITWSGGSTYYADSVKGRFTISRDNAKNTVYLQMNSLKPEDPAVYYCAALPLYLGPKRLGYWGQGTQVTVSS | high polyreactivity |
| QVQLVESGGGLVQAGGSLRISCAASGSIFVHYSMGWYRQAPGKEREFVAAISRGGGTTYYADSVKGRFTISRDNAKNTVYLQMNSLKPEDTAVYYCSARPSTDEGHRQSGLDYWGQGTQVTVSS | high polyreactivity |
| QVQLVESGGGLVQAGGSLRISCAASGSIFYLYTIGWYRQAPGKERELVAAITSGGSTNYADSVKGRFTISRDNAKNTVYLQMNSLKPEDTAVYYCAAEYFDWWVTYDYWGQGTQVTVSS | high polyreactivity |
| QVQLVESGGGLVQAGGSLRISCAASGSIFYPYAMGWYRQAPGKERELVAGITYRAGSTYYADSVKGRFTISRDNAKNTVYLQMNSLKPEDTAVYYCAASESYAFDWGQGTQVTVSS | high polyreactivity |
| QVQLVESGGGLVQAGGSLRISCAASGSIFYRYAMGWYRQAPGKERELVAAIRTRGGTYYADSVKGRFTISRDNAKNTVYLQMNSLKPEDTAVYYCNAVVPGWTAVDYDYWGQGTQVTVSS | high polyreactivity |
| QVQLVESGGGLVQAGGSLRISCAASGSNFSIYAMGWYRQAPGKERELVATNYADSVKGRFTISRDNAKNTVYLQMNSLKPEDTAVDYCAADDLSYFWGDVPGDYWGQGTQVTVSS | low polyreactivity |
| QVQLVESGGGLVQAGGSLRISCAASGSTFDNYAMGSYRHAPGKERELVAVITQSGGITFYADSVKGRFTISRDNSKNTVYLQMNSLKPEDSAVYYCNVELDRSWYYYWGQGTQVTVSS | low polyreactivity |
| QVQLVESGGGLVQAGGSLRISCAASGSTFDYNAMGWDRQAPGKERELVAVISQSGTRTYYADSVKGRFTISRDNAKNTVYLQMNSLKPEDTAVYYCAARSPYSYRYDYWGQGTQVTVSS | high polyreactivity |
| QVQLVESGGGLVQAGGSLRISCAASGSTFGDYTMGWYRQAHGKERELVAAITLTGGSTFYADSVKGRFTISRDNAKNTVYLQMNSLKPVDTAVYYCNTDVIRWVGGTWHRYYYWGQGTQVTVSS | low polyreactivity |
| QVQLVESGGGLVQAGGSLRISCAASGSTFGSYTMGWYRQAPGKERELVAAIRGGGSTYYADSVKGRFTISRDNAKNTVYLQMNSLKPEDTAVYYCAALSPRRYNPRYGFDYCGQGTQVTVSS | high polyreactivity |
| QVQLVESGGGLVQAGGSLRISCAASGSTFGYNDMGWYRQAPGKERELVAAIDTGVSTNYADSVKGRFTISRDNAKNTVYLQMNSLKPEDTAVYYCAKSGSAYWHSGWSVGFDYWGQGTQVTVSS | low polyreactivity |
| QVQLVESGGGLVQAGGSLRISCAASGSTFGYNGMGWYRQAPGKERELVAAISGGARTYADSVKGRFTISRDNAKNTVYLLMNSLKPEDTAVYYCAADSPVSVTADDVFWGQGTQVTVSS | low polyreactivity |
| QVQLVESGGGLVQAGGSLRISCAASGSTFQGNAMGWSRHAPGKERELVAAISRSGGSTYADSVKGRFTISRDNAKNTVYLQMNSLKPEDTAVYYCSADAPFDRPYNYWGQGTQVTVSS | low polyreactivity |
